# Measurements published in the DeepSol protein solubility set.
# Test: soluble on expression in E. coli; label from the status in PepcDB or PDB records
row,Sequence,soluble on expression in E. coli
1,GPGSMPPKKKVERKEEQVFVEENGSYVHQREMARYTGGVRRLTDSNFCCRHGQGTYSSPLIHYEGNWSEDEMHGNGTLRFLVSGDSYTGQFVHGVMEGCGTYIWASGAMYDGGWRGNRMHGLGTYTDVGGKVWSGKFYNGSGPGLTPCVTTGGGVAAADKRDVLKDEKEG,not soluble
2,MRGFLKFAILAAVLLALAYGDDEDEEASELERRRIRNCPEVTFKRMTGCVWEFGRFLKKVLFLDLEQRTLDRFRKSCLSMAECFDLIECKETGKFSRGKRIKDSCDVMNYLSKDFVPCLKRLERLDPAPTCFNKWKPFSDLNEVGPDTTPEEMEELCKNMLGKDNCMKDLVSRTCGGVMSQELVDRFEATSVFKQCDAD,not soluble
3,AIANFNDAKNEILQVLSKTERQHLPKLLEWIKTSDDLDDILVDNQSVILHSIAEDLRACLPMEAMAPSETLAMQKTQQKAHPTVHVDAFLYDDETVDSLCEEGKMSRTYCLNCGSHRTAPLEFISHSFSIPELQFLFHNVLPELTGKLVLDVGSRLGAVLFGGYLYSAASQLVGVEMSSEFVKLQSMAVEKYGFSDRIQVIHADIRSQIALVQKADVLIMNNVFEYFMEPRDQMQAWLYISQNFRKKGALLVTVPSIQEALGLLQDAAFLETLSLSQWIEEIPVDYSVYLKNDTDPDSLKQIHLYRVL,soluble
4,LALIAGTGALPEELVARLSEPPLVCAMEGFAPERLAVDIPFPIEHLGSLVADLKARGVSEICLAGAVGRPAVDPARIDAATLPLVPVIQQALTSGDDGALRAVMGIFENAGLTVRAAHEIAPDLLMPAGCPTKAQPEPAELADARRGAEIVAAMSAADIGQACVVHRGQALAVESVFGTNWMLGSLGQRPDAGGGVLFKAPKPDQDRRADLPTIGPDT,not soluble
5,MPLAKDLLHPLPAEEKRKHKLKRLVQHPNSYFMDVKCPGCYRITTVFSHAQGVVVCAGCATILCQPTGGRAKLTEGCSFRRKPQLEHHHHHH,not soluble
6,MSDRIASEKLRSKLMSADEAAQFVNHGDKVGFSGFTGAGYPKALPTAIANRAKEAHGAGNDYAIDLFTGASTAPDCDGVLAEADAIRWRMPYASDPIMRNKINSGSMGYSDIHLSHSGQQVEEGFFGQLNVAVIEITRITEEGYIIPSSSVGNNVEWLNAAEKVILEVNSWQSEDLEGMHDIWSVPALPNRIAVPINKPGDRIGKTYIEFDTDKVVAVVETNTADRNAPFKPVDDISKKIAGNFLDFLESEVAAGRLSYDGYIMQSGVGNVPNAVMAGLLESKFENIQAYTEVIQDGMVDLIDAGKMTVASATSFSLSPEYAEKMNNEAKRYRESIILRPQQISNHPEVIRRVGLIATNGLIEADIYGNVNSTNVSGSRVMNGIGGSGDFTRNGYISSFITPSEAKGGAISAIVPFASHIDHTEHDVMVVISEYGYADLRGLAPRERVAKMIGLAHPDYRPLLEEYYARATSGDNKYMQTPHDLATAFDFHINLAKNGSMKA,soluble
7,MTKERFVISRRRTGFGDCLWSLASAWSYAQRTGRTLVIDWRGSCYVEQPFSNAFPAFFEPVEDIAGVPVICDDRVNQLSFPGPFFPRWWNRPSIDCINRPDEQIFRERDELTELFQAREDSEANTIVCDACLMWRCSEEAERLIFRNIKLRSEIRARIDALYEEHFSGHSIIGVHVRHGNGEDIMEHAPYWADSELALHQVCMAIRKAKALSYPKPVKVFLCTDSAQVLDQVSGLFPDVFAVPKRFQADRAGPLHSAEMGIEGGASALIDMYLLARCATVIRFPPTSAFTRYARLLVPRIIEFDLSNPGHLTMIDNPYEHFAASHHHHHH,soluble
8,MTDNPAVDKRDQILAAAEQLIAESGFQGLSMQKLANEAGVAAGTIYRYFSDKEHLLEEVRLNVAKRIASAVQAGVNDDMPLKECYRTMWLNIWNLAGSNLNAISNRVQYDSLPCTTRNKTWELERKMFAQVDRLFNQGKEEGVFKPLDNEVLSGLSFEASVALARKHALGFYQLDDDALEAAIEASWDAIIKH,soluble
9,MKNFMKYLEVSKEVKEALENNKPVVALESTIISHGMPFPQNYETALKVEKVIREAGAIPATIAILDGKLKVGLSAEEIEFLGKEGSKIIKVSRRDLPYIVANKLNGATTVATTMIVAEMAGVKVFATGGIGGVHRGAETTMDISADLEELSNTNVAVICAGAKSILDLGLTLEYLETHGVPVLGYQTKKLPAFFTRESEFDLDYKIDTPKELADIITAKWEMGLNGGVVIANPIPVEYSMDYDEISKSIEEAVKEAEAKGIKGKESTPFLLAKIKEITKGKSLEANIQLVYNNAKLASEIAGNMK,not soluble
10,MVLGKPQTDPTLEWFLSHCHIHKYPSKSTLIHQGEKAETLYYIVKGSVAVLIKDEEGKEMILSYLNQGDFIGELGLFEEGQERSAWVRAKTACEVAEISYKKFRQLIQVNPDILMRLSAQMARRLQVTSEKVGNLAFLLVTGRIAQTLLNLAKQPDAMTHPDGMQIKITRQEIGQIVGCSRETVGRILKMLEDQNLISAHGKTIVVYGTR,soluble
11,MSGGIDSTATCLMLQEQGYEIVGVTMRVWGDEPQDARELAARMGIEHYVADERIPFKETIVKNFIDEYKQGRTPNPCVMCNPLFKFRVLAEWADKLDCAYIATGHYSRLEERSGHIYIVAGDDDKKDQSYFLWRLGQDILKRCIFPLGDYTKIKVREYLAEKGYEAKSKEGESMEVCFIQGDYRDFLREQCPELDTEIGPGWFVNSEGVKLGQHKGAPYYTIGQRKGLEIALGKPAYVLKINPQKNTVMLGDAEQLQTEYMLAEQDRIVDEQELFSCENLAVRIRYRSRPIPCRVKRLEDGRLLVRFRETASAVAPGQSAVFYDGRRVLGGAFIASQRGIGLVIIENKDKL,not soluble
12,MFTAGSATVTPKLNGVAGPAFQVIKDSLTLGLNALTLTDVTKNAAYGVEIESLVLEINAPAA,soluble
13,MSLAQQKPVEKVDSDGVYLMPDQMPEFPGGMQAMMKFLTTNIKYPVEAQKKGVSGRVIVQFVIMEDGTLDQAKVVRGVDPLLDEEALRVVKLMPKWKPGMDRGEAVKVRFTAPIMFNLSRSEAQRPTFPELVVPIGQEVENRSLQGVWQSCVAQPGEHGYKILLLPVLKIVSPDQTFMNIMTAGMNGRSNAIIYCQGEYSLPSDGTYVEMVEKSVDPVFIQGVKNEISVERLHDNLIKLSFTVPGQGRKVTEYWFRAPSPDVKIMAEGHHHHHH,soluble
14,MSLDKVYPIGSQYTINGFIIGDDTTENGYPITAKIEVVDTKNTISPKLIAHTIPLNNVKINGNNRLTSNRDLAIKEIISWDVSQQLYNYRDTYGLSTEGYTRSDGWDSPETKLKGHGSGHYMSALALAYAAATNPSHKEILRRNITRMVNELRECQERTFVWSEELGRYLEARDFAPEEELKKMKGTWEAFDEHKTKWATYGYGYLNAIPPHHPALIEMYRAYNNSDWVWAPYYSIHKQLAGLIDIATYMDDKSIADKALLIAKDMGLWVWNRMHYRTYVKKDGTQEERRTHPGNRYEMWNMYIAGEVGGMGESLARLSEMVSAPEEKARLIEASNCFDSPAFYEPLSKNIDDIRNRHANQHIPMIIGALRSYLSNNDTFYYHVSHNFWNLIQGRYRYSTGGVGNGEMFRQPYTQIVSMAMNGVSEGESHSNPHINETCCAYNLLKLTKDLNCFNPDDARYMDYYERTLYNQIIGSLHPEHYQTTYQYAVGLNASKPWGNETPQSTCCGGTGSENHVKYQEATYFVSDNTLWVALYMPTTLHWEEKNITLQQECLWPAKSSTIKVTAGEARFAMKLRVPYWATDGFDVKLNGISIATHYQPCSYAVIPTRQWKENDIVEITMPFTKHIDYGPDKLPAEIASKDGHQLETAWVGTLMHGPFAMTATDITNWTEATLNIDSRLASITVVEPNGPQTGTTGNLYTLMQGGRTFQPDYYRHDHTTHYFRINHIKDPTVELKMALSAKLRETTAFSKSHYTKASFAKLTTAIQEGEKLMKISPLTETTISTCVDNIDKAIESLVASRLDKSNLEASIHIAKKCNPDLYTTDSFKTLQATLESAHEVMDNIDLQTVIDKQTLSLQDATASLVLANNVDKTELKELLNIAMERQTNQEKWNALAVKIPEFAPWAHFGFTRLKRTLEHAQNVYFNKDKNYSQGEVNAIVASLNTVINTMRPGNLPEMEDLRPLSALLRRVGTIDDSTDPTLKDAVAFTEMVIKYVADGSGTHDMIETAISRLKSAAGEGHHHHHH,soluble
15,MLAKIIMKNFKSFKNETVIDFTRINYKFLENNVSNNGVLKGVAFYGANASGKSNVLWAIRFLLDELFGEEKNPVTFMKCLFSDEPEFSLQYFFVIESREIHYLIDFHTEKGIINEELYLDRKLLLQRMGSTAKSGITEKKVYTDLNNKVLFLRTVYFNTGFSGDDKDNNANNNILRQWFDYMQNSIYVNPFLHRGIAYGKQDVVLNKYLENEGVKEINRFFTKYNFEYTLDYLNERKVKDVTEIVNDDNIKLVFFNRKGVNVPIPYVLESHGNQNLLNILPCFLRVVQNSGMLLVDEFSGGLHNELERLLVNYFFLEHHHHHH,not soluble
16,MGSSHHHHHHSSGLVPRGSQSTSLYKKAGLMISAGDFKNGVTFELDGQIFQVIEFQHVKPGKGAAFVRTKLKNIVTGATIEKTFNPTDKMPKAHIERKDMQYLYNDGDLYYFMDTETFEQLPLGKDKIGDALKFVKENEIVKVLSHKGNVFGIEPPNFVELEVTDTEPGFKGDTATGATKPAIVETGASIKVPLFVNKGDIIRIDTRTGEYMERV,soluble
17,MGSDKIHHHHHHMRKAGESMKEFISLKIDYAFKLIFGKEGNEAILIAFLNAALKLPQERRIEAITIMNPELNKEYQGDKKSILDVRAETSEGMQINIEIQLSNQYDMEKRSLYYWAEMYSRQIREGMAYKELAKAVTINILDFNYLKQTSNYHNVFHLYEDEEKFQLTDALEMHFMELPKLLAKWRNREISPWENELVRWLLLLEGADNQEILQTLEEIAMKDPVLHQAMTAWEETSDDPRIREAYFDRRKAVLDEKAAIREAELRLKEALEKGRAAGIAAGKAEGKAEVAKKLLDLGFEITKVAEATGLSEKDIRSLKD,not soluble
18,MKPSIFRQALCVSAAAVLTTVSHSLTTPTAHAQGGTPGLMEFRWDSDRNYRKLYYFQTSSIENDRSEWYLHLRAKDRKTSIMKLTVTVPDYFDAKLRPERMTLCRTSSGSMTKRTRCLEEVPATIEVNKTQTAIEVYPDTPVPVEGDYSLRIKLFNPQGKRMYQLNALIQAPGDVPMSGYVGSWLIDMD,not soluble
19,MSLHIVVIGAGIVGASTALELQRDGHRVTLVEPGQPGGPQAASFGNGAWLSPASVVPMSMPGLWKKVPGYLMDPLGPLTIRWTALPALAPWLLRFIAAGATVPKVEATARALKALLSDAPERHTALAAEAGLADLVERKGLLYAYPDRAAFEAEALAWRLRRDNGIVWRELDGPALKAFEPTLHPRYGFGALVEAGAHCVDPGAYVAGLVAFAESRGLTRIEAAATGFDIVGGRLQAVRTAKGSVPCDRAVIAAGIHSRALAAEAGDKVSLASERGYHVVVATPESGPHLPVMPSDGKMANTPTRAGLRASGQVELAAVAAAPNWKRADVLLDHLLNTYPGLPRQVPEARLSRWLGHRPSTPDGVPVIGQASACTDIVHAFGHGHVGLASGPITGRLVADIIAGRPPERDIRPYAAARFRREGHHHHHH,soluble
20,MELGLYTFADVNPNPADGRGPEGARRLRELLEEIELADQVGLDVFGLGEHHRPDYVVSSPSTVLAAAAVKTKNIRLTSAVSVLSSDDPVRVFQQFSTVDLLSNGRAEIMAGRGSFIESYPLFGYDLEDYDVLFAEKLDLLLALREQEVVTWSGTKHPAINGRGVYPRPLQERLPVWIAVGGTPQSVARAGAMGLPVALAIIGGEYRRFAPLFDLYHEAARRAGQEKTKLRTSINVHGFIADTTDKAADQFYGPQAEVMNRIGRERGWGPTNRAHFDAARGPEGNLFLGEPELVAEKIIKAHGVFKNDRFLLQMAIGLMPHDQIMRGIELYGTKVAPLVRKELTGSADPVKATA,soluble
21,MAHHHHHHMQVTETVLARAVIKRRSPQLWGAPGAPIIRMRGHHVVWKFQSYDLVVEHTHKRRNSDIRLLHYLGKHCPHPQKSLWSPDTPVAQDRHLFMLTTVDIDAFKYWFGVKRCRLSMKPWALLAKAGLLPPSLTQNSKIMPKPLFDKESLMRYYLANRKDEDVMAREKYLNYENSMVKTEEERAAERPVAPYL,soluble
